From patent US10487114

Test system: T1, pT231-Pro tau peptide KVAVVR-(pT231)-(Pro)-PKSPS
T1 sequence: KVAVVRTPPKSPS

In the case of PP2A, the “dephosphorylation of pT231-tau peptide, read with the conformation-specific antibodies” value is reported as “Trans, but not cis, pT231-tau peptide was readily dephosphorylated by PP2A in a time-dependent manner”.
